Test results taken from article PMC2278140, “Regulation of the cd38 promoter in human airway smooth muscle cells by TNF-α and dexamethasone”.

Key:
Conditions in all cases: protein: commercial; chain copies: 2; label: 32P 5' end; blunt
[1] = biological target: T1, glucocorticoid receptor (GR) (human, UniProt P04150 1-777); test: EMSA; anti-GR supershift; 20% glycerol, 5 mM MgCl2, 2.5 mM EDTA, 2.5 mM DTT, 250 mM NaCl, 50 mM Tris-HCl pH 7.5, 0.25 mg/ml poly(dI-dC), room temperature 30 min; 0.4 pmol probe in 10 μl, 5 μg extract or 1 μg GR
T1 sequence (P04150 whole entry): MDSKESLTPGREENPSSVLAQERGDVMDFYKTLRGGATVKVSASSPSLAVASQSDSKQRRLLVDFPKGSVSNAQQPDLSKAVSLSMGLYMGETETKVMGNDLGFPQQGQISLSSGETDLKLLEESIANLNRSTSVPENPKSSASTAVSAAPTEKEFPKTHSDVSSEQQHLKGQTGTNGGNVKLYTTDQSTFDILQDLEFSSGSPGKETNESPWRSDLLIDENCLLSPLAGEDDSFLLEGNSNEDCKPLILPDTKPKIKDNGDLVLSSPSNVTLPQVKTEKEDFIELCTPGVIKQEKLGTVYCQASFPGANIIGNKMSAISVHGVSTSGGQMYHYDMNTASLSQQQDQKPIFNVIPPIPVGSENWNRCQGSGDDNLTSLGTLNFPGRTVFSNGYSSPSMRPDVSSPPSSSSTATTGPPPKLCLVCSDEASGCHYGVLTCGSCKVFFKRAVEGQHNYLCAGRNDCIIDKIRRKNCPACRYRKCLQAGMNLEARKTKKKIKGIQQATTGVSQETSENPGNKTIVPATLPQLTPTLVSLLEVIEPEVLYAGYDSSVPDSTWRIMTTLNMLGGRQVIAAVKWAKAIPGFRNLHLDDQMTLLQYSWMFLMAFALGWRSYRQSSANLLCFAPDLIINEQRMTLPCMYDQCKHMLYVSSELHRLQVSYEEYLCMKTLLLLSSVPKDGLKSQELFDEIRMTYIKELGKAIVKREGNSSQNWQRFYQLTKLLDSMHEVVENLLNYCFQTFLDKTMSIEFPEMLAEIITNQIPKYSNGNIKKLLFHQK

[2] = biological target: T1, glucocorticoid receptor (GR); test: EMSA; 20% glycerol, 5 mM MgCl2, 2.5 mM EDTA, 2.5 mM DTT, 250 mM NaCl, 50 mM Tris-HCl pH 7.5, 0.25 mg/ml poly(dI-dC), room temperature 30 min; 0.4 pmol probe in 10 μl, 5 μg extract or 1 μg GR
[3] = biological target: T1, glucocorticoid receptor (GR); test: competition; excess unlabeled self vs labeled GRE3; 20% glycerol, 5 mM MgCl2, 2.5 mM EDTA, 2.5 mM DTT, 250 mM NaCl, 50 mM Tris-HCl pH 7.5, 0.25 mg/ml poly(dI-dC), room temperature 30 min; 0.4 pmol probe in 10 μl, 5 μg extract or 1 μg GR
[4] = biological target: T1, glucocorticoid receptor (GR); test: competition; excess unlabeled self vs labeled GRE4; 20% glycerol, 5 mM MgCl2, 2.5 mM EDTA, 2.5 mM DTT, 250 mM NaCl, 50 mM Tris-HCl pH 7.5, 0.25 mg/ml poly(dI-dC), room temperature 30 min; 0.4 pmol probe in 10 μl, 5 μg extract or 1 μg GR
[5] = biological target: T1, glucocorticoid receptor (GR); test: competition; excess unlabeled vs labeled GRE consensus; 20% glycerol, 5 mM MgCl2, 2.5 mM EDTA, 2.5 mM DTT, 250 mM NaCl, 50 mM Tris-HCl pH 7.5, 0.25 mg/ml poly(dI-dC), room temperature 30 min; 0.4 pmol probe in 10 μl, 5 μg extract or 1 μg GR

B1: GRE consensus (dsDNA)
DNA 1: TAGAGGATCTGTACAGGATGTTCTAGAT
DNA 2: ATCTAGAACATCCTGTACAGATCCTCTA
Question: Does B1 bind [1]?
Answer: binds

B2: GRE1 (dsDNA)
DNA 1: AATGTCACAGATGTTCTCTTAATAAAGA
DNA 2: TCTTTATTAAGAGAACATCTGTGACATT
Question: Does B2 bind [2]?
Answer: binds

B3: GRE3 (dsDNA)
DNA 1: AAGCACTGCCATGTTCTCACTTATAAGT
DNA 2: ACTTATAAGTGAGAACATGGCAGTGCTT
Question: Does B3 bind [3]?
Answer: binds

B4: GRE4 (dsDNA)
DNA 1: GCCATTGTAACTGTTCTCCATCCTTATC
DNA 2: GATAAGGATGGAGAACAGTTACAATGGC
Question: Does B4 bind [4]?
Answer: binds

B5: GRE2 (dsDNA)
DNA 1: TTCCGAACTTCTGTTCTGTTTCCCTCAA
DNA 2: TTGAGGGAAACAGAACAGAAGTTCGGAA
Question: Does B5 bind [5]?
Answer: no binding
